The values below come from patent US7186697.

For the experiment, the target named is recombinant HIV-1 gp120 (American Biotechnology, Inc.) (HIV-1). In words: ELISA on gp120-coated plates, culture medium. On the technique in general: ELISA stands for enzyme-linked immunosorbent assay.

For “Fab105-Protamine fusion protein (from UniProt P04553 1-51)”, the binding activity against HIV gp120 in culture medium (µg/ml/24 hours) was 0.1.
